Experimental data published in PMC3985343 (The Laryngoscope, 2013).

Target: Wildtype His6-Gαi1 (UniProt P63096 1-354)
Experiment: SPR

Wildtype His6-Gαi1, sequence (P63096 whole entry): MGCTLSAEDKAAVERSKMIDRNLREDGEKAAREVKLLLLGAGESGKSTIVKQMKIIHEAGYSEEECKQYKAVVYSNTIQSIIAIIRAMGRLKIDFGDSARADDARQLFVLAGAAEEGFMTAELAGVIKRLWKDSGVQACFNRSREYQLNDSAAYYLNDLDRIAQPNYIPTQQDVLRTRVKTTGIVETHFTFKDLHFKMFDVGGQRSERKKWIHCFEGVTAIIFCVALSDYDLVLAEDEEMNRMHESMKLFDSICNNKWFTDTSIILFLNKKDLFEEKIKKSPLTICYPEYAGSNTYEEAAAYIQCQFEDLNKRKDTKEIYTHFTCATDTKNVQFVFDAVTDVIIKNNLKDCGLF

B1: RGS21 (regulator of G protein signaling-21), wildtype, His6 tag cleaved (natural protein, human, UniProt Q2M5E4 1-152, looked up)
chain: MPVKCCFYRSPTAETMTWSENMDTLLANQAGLDAFRIFLKSEFSEENVEFWLACEDFKKTKNADKIASKAKMIYSEFIEADAPKEINIDFGTRDLISKNIAEPTLKCFDEAQKLIYCLMAKDSFPRFLKSEIYKKLVNSQQVPNHKKWLPFL
- Kd: 57 nM
